These results are taken from US20220072097A1, “PEPTIDES AND METHODS FOR TREATING NEURODEGENERATIVE DISORDERS” (OHIO STATE INNOVATION FOUNDATION, priority 2016, published 2022).

For test [1], the target named is T1, human APP fragment (SEQ ID NO:1) (Homo sapiens, UniProt P05067).
T1 construct: made in house
In words: Kinetic ELISA binding of PTPσ fragments to human APP fragment. Particulars: recombinant proteins, compared with IG1,2. The method, then: (§1) FIG. 20 Ligand binding site of PTPσ IG1 domain interacts with APP. Binding of human APP fragment (SEQ ID NO:1) with various PTPσ fragments is measured by kinetic ELISA assay. APP fragment corresponds to SEQ ID NO:1, which is a region between E1 and E2 domains. PTPσ fragments used here include IG1,2 (containing IG1 and IG2 domains), ΔLysIG1,2 (containing IG1 and IG2 domains, with lysine 67, 68, 70, 71 mutated to alanine), IG1-FN1 (containing IG1, IG2, IG3 and FN1 domains), ECD (full extracellular domain of PTPσ containing all 3 IG domains and 4 FN domains). Value shown are mean±SEM, n=3 for each group. ***, p≤0.001, Student t test, comparison with the IG1,2.
(§2) Domain regions were subcloned from human APP695 (construct by Denis Selkoe and Tracy Yang labs purchased through Addgene.com) and PTPσ (constructs from Radu Aricescu lab). Recombinant APP and PTPσ proteins were tested in solid phase ELISA binding assays to define the binding regions on each partner. […] Comparing APP binding strength of difference PTPσ fragments, it appears that inclusion of the fibronectin (FN) domains of PTPσ weakens the interaction with APP, likely due to folding of PTPσ that covers up the ligand binding site in its IG1 domain^61.
A general note: In an ELISA, binding on a coated surface is turned into a signal by an enzyme label.

Another test has as its system PTPσ. In words: Solid phase ELISA binding of recombinant APP domains to PTPσ. More on the design: species or system human. Particulars: recombinant proteins, solid phase ELISA binding assay. The method, then:
as §1, §2

B1: Full PTPσ extracellular domain: full extracellular domain of PTPσ containing all 3 IG domains and 4 FN domains (protein, UniProt Q13332 30-1282, looked up)
extracellular domain: EEPPRFIKEPKDQIGVSGGVASFVCQATGDPKPRVTWNKKGKKVNSQRFETIEFDESAGAVLRIQPLRTPRDENVYECVAQNSVGEITVHAKLTVLREDQLPSGFPNIDMGPQLKVVERTRTATMLCAASGNPDPEITWFKDFLPVDPSASNGRIKQLRSETFESTPIRGALQIESSEETDQGKYECVATNSAGVRYSSPANLYVRELREVRRVAPRFSILPMSHEIMPGGNVNITCVAVGSPMPYVKWMQGAEDLTPEDDMPVGRNVLELTDVKDSANYTCVAMSSLGVIEAVAQITVKSLPKAPGTPMVTENTATSITITWDSGNPDPVSYYVIEYKSKSQDGPYQIKEDITTTRYSIGGLSPNSEYEIWVSAVNSIGQGPPSESVVTRTGEQAPASAPRNVQARMLSATTMIVQWEEPVEPNGLIRGYRVYYTMEPEHPVGNWQKHNVDDSLLTTVGSLLEDETYTVRVLAFTSVGDGPLSDPIQVKTQQGVPGQPMNLRAEARSETSITLSWSPPRQESIIKYELLFREGDHGREVGRTFDPTTSYVVEDLKPNTEYAFRLAARSPQGLGAFTPVVRQRTLQSKPSAPPQDVKCVSVRSTAILVSWRPPPPETHNGALVGYSVRYRPLGSEDPEPKEVNGIPPTTTQILLEALEKWTQYRITTVAHTEVGPGPESSPVVVRTDEDVPSAPPRKVEAEALNATAIRVLWRSPAPGRQHGQIRGYQVHYVRMEGAEARGPPRIKDVMLADAQWETDDTAEYEMVITNLQPETAYSITVAAYTMKGDGARSKPKVVVTKGAVLGRPTLSVQQTPEGSLLARWEPPAGTAEDQVLGYRLQFGREDSTPLATLEFPPSEDRYTASGVHKGATYVFRLAARSRGGLGEEAAEVLSIPEDTPRGHPQILEAAGNASAGTVLLRWLPPVPAERNGAIVKYTVAVREAGALGPARETELPAAAEPGAENALTLQGLKPDTAYDLQVRAHTRRGPGPFSPPVRYRTFLRDQVSPKNFKVKMIMKTSVLLSWEFPDNYNSPTPYKIQYNGLTLDVDGRTTKKLITHLKPHTFYNFVLTNRGSSLGGLQQTVTAWTAFNLLNGKPSVAPKPDADGFIMVYLPDGQSPVPVQSYFIVMVPLRKSRGGQFLTPLGSPEDMDLEELIQDISRLQRRSLRHSRQLEVPRPYIAARFSVLPPTFHPGDQKQYGGFDNRGLEPGHRYVLFVLAVLQKSEPTFAASPFSDPFQLDNPDPQPIVDGEEG
modifications: extracellular domain
notes: full extracellular domain of PTPσ containing all 3 IG domains and 4 FN domains
For B1, the “Binding of PTPσ fragment with APP SEQ ID NO:1” value in test [1] is “nearly lost binding”.

B2: … (protein)
chain: AEESDNVDSADAEEDDSDVWWGGADTDYADGSEDKVVEVAEEEEVAEVEEEEADDDEDDEDGDEVEEEAEEPYEEATERTTSIATTTTTTTESVEEVVR
notes: recombinant human APP fragment, the region between E1 and E2 domains
Regarding B2, in the test on PTPσ, the “Interaction of APP region with PTPσ” value is recorded as “high affinity”.
